Measured values taken from patent publication US7056679 (ANTYRA, dated 2006).

T1: DGI-2 polypeptide (UniProt Q15004 1-111, limits assumed)
T1 construct: Soluble recombinant protein coated at 500 ng/well; vector tag of pIVEX2.3-MCS not described for this construct; also called KIAA0101
T1 sequence (looked up): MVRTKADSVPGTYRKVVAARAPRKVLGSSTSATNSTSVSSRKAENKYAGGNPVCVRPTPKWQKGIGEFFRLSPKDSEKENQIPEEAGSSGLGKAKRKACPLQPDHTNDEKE


Target: T1, DGI-2 polypeptide
Experiment: phage ELISA
Description: (§1) For analysis of individual target binders, colonies were picked and phage prepared as described above using helper phage, M13KO7. Ninety-six-well microtiter plates were coated with 500 ng/well of specific target protein, 500 ng/well lactate dehydrogenase (LDH) irrelevant or non-specific target, 500 ng/well of positive control antibody raised against ETAG, and negative control of non-fat milk powder-PBS 2% at 4° C. overnight. Plates were then blocked with 350 microliters/well PBS containing 2% non-fat milk for 1 hr at room temperature. One hundred microliters per well of phage from isolated clones were added and plates were incubated at room temperature for 2 hr after centrifuging samples for 20 minutes at 3500 rpm at 4° C. The phage solution was then removed, and the wells were washed three times with PBS at room temperature. Antibody raised against M13 conjugated to horseradish peroxidase (Pharmacia) was diluted 1:3000 in PBS-Tween and added to each well (100 µl/well). Incubation was for 1 hr at room temperature, followed by washing with PBS-(0.5%) Tween 3 times as described. Color was developed by addition of ABTS solution (100 µl/well; Boehringer, Indianapolis, Ind.). Plates were analyzed at 405 nm. A clone was considered "positive" if the $A405$ of the well was $\geq$2-fold over background.

Compared with PVYRVAMCRISVGCSAGAWFAAAGAPVPYPDPLEPRP [DGI-2-20F-PP-C12], VTGTRFRGFAVACVRMGTWHAAAGAPVPYPDPLEPRP [DGI-2-20F-PP-F2] is lower in “DGI-2 (OD)” value: 2.5 OD for the first, 2.4 OD for the second.

Going from VRAVYSRDAYNEVGRWMRVGIAAAGAPVPYPDPLEPRP [DGI-2-20F-PP-D9] to DRSRAPLCADKSGRWQRYRRAAAGAPVPYPDPLEPRP [DGI-2-20F-PP-C10], the “DGI-2 (OD)” value falls from 2.9 OD to 2.7 OD.

First: SLFERSARSRYHGSPDCNGSAAAGAPVPYPDPLEPRP [DGI-2-20F-PP-A3]
Second: SIILAGCVWVMPCGQNLGGVAAAGAPVPYPDPLEPRP [DGI-2-20F-PP-C4]
The “DGI-2 (OD)” value of the first is lower: 2.8 OD for the first, 3 OD for the second.

Going from ERVSKCVGRGSGRSVGQFGGAAAGAPVPYPDPLEPRP [DGI-2-20F-PP-F1] to LFRFSGTGMASLPCVGWHLVAAAGAPVPYPDPLEPRP [DGI-2-20F-PP-B6], the “DGI-2 (OD)” value falls from 3 OD to 2.5 OD.

Compared with SLLCVVCRPVSGGRALGGVPAAAGAPVPYPDPLEPRP [DGI-2-20F-PP-B42], WVVALRRIRLGLRRGVECLLAAAGAPVPYPDPLEPRP [DGI-2-20F-PP-D5] is higher in “DGI-2 (OD)” value: 2.4 OD for the first, 2.7 OD for the second.

First: RVSYEMLGRRRRSMHGSSMRAAAGAPVPYPDPLEPRP [DGI-2-20F-PP-A4]
Second: VCGQRVARMQLNKTIRKLDSAAAGAPVPYPDPLEPRP [DGI-2-20F-PP-A6]
The “DGI-2 (OD)” value of the first is lower: 2.7 OD for the first, 3.1 OD for the second.

First: GGDLGEQGVQLCPDVVRGGSLAAAGAPVPYPDPLEPRP [DGI-2-20F-PP-A7]
Second: TFTRDVAGPAVSFVRLHSWNAAAGAPVPYPDPLEPRP [DGI-2-20F-PP-A9]
The “DGI-2 (OD)” value of the first is lower: 2.6 OD for the first, 2.7 OD for the second.

GLYQRGLAPRCRGERFGVRNAAAGAPVPYPDPLEPRP [DGI-2-20F-PP-C2] and GSTRLRVTVRFCSETGTPGCAAAGAPVPYPDPLEPRP [DGI-2-20F-PP-G6] are the same in “DGI-2 (OD)” value: 2.7 OD for the first, 2.7 OD for the second.

For VVHTRAWGSWAYGFVLRNRGAAAGAPVPYPDPLEPRP [DGI-2-20F-PP-F10], the “DGI-2 (OD)” value was 3.5 OD.

First: PVYRVAMCRISVGCSAGAWFAAAGAPVPYPDPLEPRP [DGI-2-20F-PP-C12]
Second: VTGTRFRGFAVACVRMGTWHAAAGAPVPYPDPLEPRP [DGI-2-20F-PP-F2]
The DGI-2/LDH of the first is higher: 2.9 ratio for the first, 2.5 ratio for the second.

Compared with VRAVYSRDAYNEVGRWMRVGIAAAGAPVPYPDPLEPRP [DGI-2-20F-PP-D9], DRSRAPLCADKSGRWQRYRRAAAGAPVPYPDPLEPRP [DGI-2-20F-PP-C10] is higher in DGI-2/LDH: 2.9 ratio for the first, 3.1 ratio for the second.

First: SLFERSARSRYHGSPDCNGSAAAGAPVPYPDPLEPRP [DGI-2-20F-PP-A3]
Second: SIILAGCVWVMPCGQNLGGVAAAGAPVPYPDPLEPRP [DGI-2-20F-PP-C4]
The DGI-2/LDH of the first is lower: 2.4 ratio for the first, 3.2 ratio for the second.

Going from ERVSKCVGRGSGRSVGQFGGAAAGAPVPYPDPLEPRP [DGI-2-20F-PP-F1] to LFRFSGTGMASLPCVGWHLVAAAGAPVPYPDPLEPRP [DGI-2-20F-PP-B6], the DGI-2/LDH falls from 3.4 ratio to 2.6 ratio.

Compared with SLLCVVCRPVSGGRALGGVPAAAGAPVPYPDPLEPRP [DGI-2-20F-PP-B42], WVVALRRIRLGLRRGVECLLAAAGAPVPYPDPLEPRP [DGI-2-20F-PP-D5] is lower in DGI-2/LDH: 2.5 ratio for the first, 2.3 ratio for the second.

First: RVSYEMLGRRRRSMHGSSMRAAAGAPVPYPDPLEPRP [DGI-2-20F-PP-A4]
Second: VCGQRVARMQLNKTIRKLDSAAAGAPVPYPDPLEPRP [DGI-2-20F-PP-A6]
The DGI-2/LDH of the first is lower: 2.6 ratio for the first, 2.8 ratio for the second.

Going from GGDLGEQGVQLCPDVVRGGSLAAAGAPVPYPDPLEPRP [DGI-2-20F-PP-A7] to TFTRDVAGPAVSFVRLHSWNAAAGAPVPYPDPLEPRP [DGI-2-20F-PP-A9], the DGI-2/LDH falls from 2.8 ratio to 2.3 ratio.

GLYQRGLAPRCRGERFGVRNAAAGAPVPYPDPLEPRP [DGI-2-20F-PP-C2] and GSTRLRVTVRFCSETGTPGCAAAGAPVPYPDPLEPRP [DGI-2-20F-PP-G6] are the same in DGI-2/LDH: 2.5 ratio for the first, 2.5 ratio for the second.

VVHTRAWGSWAYGFVLRNRGAAAGAPVPYPDPLEPRP [DGI-2-20F-PP-F10] gave a DGI-2/LDH of 2.8 ratio.

Target: T2, antibody raised against ETAG
T2 construct: Coated at 500 ng/well; also called E-tag antibody
Experiment: phage ELISA
Description: as §1

Compared with PVYRVAMCRISVGCSAGAWFAAAGAPVPYPDPLEPRP [DGI-2-20F-PP-C12], VTGTRFRGFAVACVRMGTWHAAAGAPVPYPDPLEPRP [DGI-2-20F-PP-F2] is lower in “ETAG (OD)” value: 36.4 OD for the first, 1.9 OD for the second.

Going from VRAVYSRDAYNEVGRWMRVGIAAAGAPVPYPDPLEPRP [DGI-2-20F-PP-D9] to DRSRAPLCADKSGRWQRYRRAAAGAPVPYPDPLEPRP [DGI-2-20F-PP-C10], the “ETAG (OD)” value falls from 9 OD to 8.6 OD.

First: SLFERSARSRYHGSPDCNGSAAAGAPVPYPDPLEPRP [DGI-2-20F-PP-A3]
Second: SIILAGCVWVMPCGQNLGGVAAAGAPVPYPDPLEPRP [DGI-2-20F-PP-C4]
The “ETAG (OD)” value of the first is lower: 12.9 OD for the first, 36.1 OD for the second.

First: ERVSKCVGRGSGRSVGQFGGAAAGAPVPYPDPLEPRP [DGI-2-20F-PP-F1]
Second: LFRFSGTGMASLPCVGWHLVAAAGAPVPYPDPLEPRP [DGI-2-20F-PP-B6]
The “ETAG (OD)” value of the first is lower: 11.1 OD for the first, 37 OD for the second.

First: SLLCVVCRPVSGGRALGGVPAAAGAPVPYPDPLEPRP [DGI-2-20F-PP-B42]
Second: WVVALRRIRLGLRRGVECLLAAAGAPVPYPDPLEPRP [DGI-2-20F-PP-D5]
The “ETAG (OD)” value of the first is lower: 21.5 OD for the first, 33.6 OD for the second.

First: RVSYEMLGRRRRSMHGSSMRAAAGAPVPYPDPLEPRP [DGI-2-20F-PP-A4]
Second: VCGQRVARMQLNKTIRKLDSAAAGAPVPYPDPLEPRP [DGI-2-20F-PP-A6]
The “ETAG (OD)” value of the first is lower: 6.6 OD for the first, 35.1 OD for the second.

Compared with GGDLGEQGVQLCPDVVRGGSLAAAGAPVPYPDPLEPRP [DGI-2-20F-PP-A7], TFTRDVAGPAVSFVRLHSWNAAAGAPVPYPDPLEPRP [DGI-2-20F-PP-A9] is lower in “ETAG (OD)” value: 42.2 OD for the first, 40.8 OD for the second.

Compared with GLYQRGLAPRCRGERFGVRNAAAGAPVPYPDPLEPRP [DGI-2-20F-PP-C2], GSTRLRVTVRFCSETGTPGCAAAGAPVPYPDPLEPRP [DGI-2-20F-PP-G6] is higher in “ETAG (OD)” value: 6 OD for the first, 36.1 OD for the second.

For VVHTRAWGSWAYGFVLRNRGAAAGAPVPYPDPLEPRP [DGI-2-20F-PP-F10], the “ETAG (OD)” value was 42.5 OD.

Target: T3, lactate dehydrogenase (LDH)
T3 construct: Coated at 500 ng/well as non-specific target; also called LDH polypeptide
Experiment: phage ELISA
Description: as §1

First: PVYRVAMCRISVGCSAGAWFAAAGAPVPYPDPLEPRP [DGI-2-20F-PP-C12]
Second: VTGTRFRGFAVACVRMGTWHAAAGAPVPYPDPLEPRP [DGI-2-20F-PP-F2]
The “LDH (OD)” value of the first is lower: 0.9 OD for the first, 1 OD for the second.

First: VRAVYSRDAYNEVGRWMRVGIAAAGAPVPYPDPLEPRP [DGI-2-20F-PP-D9]
Second: DRSRAPLCADKSGRWQRYRRAAAGAPVPYPDPLEPRP [DGI-2-20F-PP-C10]
The “LDH (OD)” value of the first is higher: 1 OD for the first, 0.9 OD for the second.

Compared with SLFERSARSRYHGSPDCNGSAAAGAPVPYPDPLEPRP [DGI-2-20F-PP-A3], SIILAGCVWVMPCGQNLGGVAAAGAPVPYPDPLEPRP [DGI-2-20F-PP-C4] is lower in “LDH (OD)” value: 1.2 OD for the first, 0.9 OD for the second.

Compared with ERVSKCVGRGSGRSVGQFGGAAAGAPVPYPDPLEPRP [DGI-2-20F-PP-F1], LFRFSGTGMASLPCVGWHLVAAAGAPVPYPDPLEPRP [DGI-2-20F-PP-B6] is higher in “LDH (OD)” value: 0.9 OD for the first, 1 OD for the second.

Compared with SLLCVVCRPVSGGRALGGVPAAAGAPVPYPDPLEPRP [DGI-2-20F-PP-B42], WVVALRRIRLGLRRGVECLLAAAGAPVPYPDPLEPRP [DGI-2-20F-PP-D5] is higher in “LDH (OD)” value: 1 OD for the first, 1.2 OD for the second.

RVSYEMLGRRRRSMHGSSMRAAAGAPVPYPDPLEPRP [DGI-2-20F-PP-A4] and VCGQRVARMQLNKTIRKLDSAAAGAPVPYPDPLEPRP [DGI-2-20F-PP-A6] are the same in “LDH (OD)” value: 1.1 OD for the first, 1.1 OD for the second.

Compared with GGDLGEQGVQLCPDVVRGGSLAAAGAPVPYPDPLEPRP [DGI-2-20F-PP-A7], TFTRDVAGPAVSFVRLHSWNAAAGAPVPYPDPLEPRP [DGI-2-20F-PP-A9] is higher in “LDH (OD)” value: 0.9 OD for the first, 1.2 OD for the second.

GLYQRGLAPRCRGERFGVRNAAAGAPVPYPDPLEPRP [DGI-2-20F-PP-C2] and GSTRLRVTVRFCSETGTPGCAAAGAPVPYPDPLEPRP [DGI-2-20F-PP-G6] are the same in “LDH (OD)” value: 1.1 OD for the first, 1.1 OD for the second.

With VVHTRAWGSWAYGFVLRNRGAAAGAPVPYPDPLEPRP [DGI-2-20F-PP-F10] the “LDH (OD)” value was 1.3 OD.
